Experimental data from the supplement of paper PMC10126150.
± gives the standard deviation of the averaged measurements.

tested on: ATP; test: switch fluorescence ratio, 500 uM ATP over buffer (Cy3 cluster intensity, sum of 5 cycles each) (fold (ratio)); higher = stronger signal-on switching upon ATP binding; sequences stand for … in TCGTCGGCAGCGTCAGATGTGTATAAGAGACAGTTTTTTTTTTTTTTTTTTTTTTTTT…TC; conditions: aptamer strand: ATP DNA aptamer (quencher-CACCTGGGGGAGTATTGCGGAGGAAGG + anchor), 100 nM annealed; ATP concentration: 500 uM
Outline: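 Cy3-labelled switching-strand clusters on a modified Illumina MiSeq flow-cell were annealed to 100 nM quencher-labelled ATP aptamer, imaged in selection buffer, then imaged after 15 min with 500 uM ATP at 22 °C. Five buffer/ATP cycles ran, with NaOH stripping and re-annealing between them. The fluorescence ratio is summed target-cycle over summed buffer-cycle Cy3 intensity per cluster, averaged per switch-domain sequence. Clusters outside 100-1000 RFU were excluded.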
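Note: ATP exposure 15 min at 22 °C before imaging.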

Question: Which switch fluorescence ratio does the source give for ATTTAGTATC here?
Answer: Its switch fluorescence ratio is 1.09 ± 0.14.

Question: How did the switch fluorescence ratio turn out when ATTTAGTGTT was run?
Answer: The switch fluorescence ratio was 1 ± 0.024.

Question: ATTTAGTTTC was tested. Which switch fluorescence ratio did it give?
Answer: The switch fluorescence ratio was 0.976 ± 0.026.

Question: ATTTATACTG was tested. Which switch fluorescence ratio did it give?
Answer: The switch fluorescence ratio was 1.05 ± 0.052.

Question: ATTTATCCAA was tested. Which switch fluorescence ratio did it give?
Answer: Its switch fluorescence ratio is 1 ± 0.039.

Question: How did the switch fluorescence ratio turn out when ATTTATCCAC was run?
Answer: Its switch fluorescence ratio is 1.01 ± 0.046.

Question: ATTTATCCTC was tested. Which switch fluorescence ratio did it give?
Answer: The switch fluorescence ratio was 1.05 ± 0.029.

Question: With ATTTATCGCA as the sequence, how does the switch fluorescence ratio read?
Answer: Its switch fluorescence ratio is 1.011 ± 0.0041.

Question: With ATTTATCTGA as the sequence, how does the switch fluorescence ratio read?
Answer: The switch fluorescence ratio was 0.99 ± 0.016.

Question: How did the switch fluorescence ratio turn out when ATTTATGAAA was run?
Answer: Its switch fluorescence ratio is 1.04 ± 0.054.

Question: How did the switch fluorescence ratio turn out when ATTTATGAG was run?
Answer: The switch fluorescence ratio was 0.977 ± 0.036.

Question: For ATTTATGGGT, which switch fluorescence ratio is on record?
Answer: Its switch fluorescence ratio is 0.987 ± 0.029.

Question: ATTTATGTGT was tested. Which switch fluorescence ratio did it give?
Answer: The switch fluorescence ratio was 1.01 ± 0.057.

Question: How did the switch fluorescence ratio turn out when ATTTATTTAG was run?
Answer: Its switch fluorescence ratio is 0.987 ± 0.022.

Question: Which switch fluorescence ratio does the source give for ATTTCACTCG here?
Answer: Its switch fluorescence ratio is 1.01 ± 0.036.

Question: Which switch fluorescence ratio does the source give for ATTTCATCGT here?
Answer: The switch fluorescence ratio was 1.03 ± 0.012.

Question: With ATTTCCTTTG as the sequence, how does the switch fluorescence ratio read?
Answer: The switch fluorescence ratio was 1.021 ± 0.006.

Question: With ATTTCGGA as the sequence, how does the switch fluorescence ratio read?
Answer: Its switch fluorescence ratio is 0.975 ± 0.034.

Question: With ATTTCGGTGC as the sequence, how does the switch fluorescence ratio read?
Answer: Its switch fluorescence ratio is 1.1 ± 0.17.

Question: ATTTCGGTTG was tested. Which switch fluorescence ratio did it give?
Answer: Its switch fluorescence ratio is 0.989 ± 0.026.

Question: For ATTTCGTCGT, which switch fluorescence ratio is on record?
Answer: Its switch fluorescence ratio is 1.01 ± 0.03.

Question: With ATTTCGTTGC as the sequence, how does the switch fluorescence ratio read?
Answer: Its switch fluorescence ratio is 1.06 ± 0.058.

Question: ATTTCTAATT was tested. Which switch fluorescence ratio did it give?
Answer: The switch fluorescence ratio was 1.07 ± 0.15.

Question: Which switch fluorescence ratio does the source give for ATTTCTATTT here?
Answer: The switch fluorescence ratio was 1.01 ± 0.059.

Question: ATTTCTTTTG was tested. Which switch fluorescence ratio did it give?
Answer: The switch fluorescence ratio was 1.02 ± 0.056.

Question: Which switch fluorescence ratio does the source give for ATTTGAAAGT here?
Answer: Its switch fluorescence ratio is 1.02 ± 0.011.

Question: With ATTTGACGGT as the sequence, how does the switch fluorescence ratio read?
Answer: Its switch fluorescence ratio is 1.07 ± 0.11.

Question: ATTTGACGTT was tested. Which switch fluorescence ratio did it give?
Answer: Its switch fluorescence ratio is 1.003 ± 0.006.

Question: With ATTTGAGGGT as the sequence, how does the switch fluorescence ratio read?
Answer: Its switch fluorescence ratio is 0.986 ± 0.021.

Question: For ATTTGAGTAT, which switch fluorescence ratio is on record?
Answer: The switch fluorescence ratio was 1.004 ± 0.0093.

Question: With ATTTGATGGG as the sequence, how does the switch fluorescence ratio read?
Answer: The switch fluorescence ratio was 0.977 ± 0.03.

Question: How did the switch fluorescence ratio turn out when ATTTGCCGAC was run?
Answer: The switch fluorescence ratio was 0.975 ± 0.019.

Question: Which switch fluorescence ratio does the source give for ATTTGCGGAG here?
Answer: Its switch fluorescence ratio is 1.002 ± 0.0057.

Question: ATTTGGCCGG was tested. Which switch fluorescence ratio did it give?
Answer: The switch fluorescence ratio was 1.01 ± 0.04.

Question: How did the switch fluorescence ratio turn out when ATTTGGCGCT was run?
Answer: Its switch fluorescence ratio is 0.994 ± 0.059.

Question: With ATTTGGCTGT as the sequence, how does the switch fluorescence ratio read?
Answer: The switch fluorescence ratio was 0.997 ± 0.023.

Question: ATTTGGGCCT was tested. Which switch fluorescence ratio did it give?
Answer: Its switch fluorescence ratio is 1.02 ± 0.032.

Question: For ATTTGGGCTC, which switch fluorescence ratio is on record?
Answer: Its switch fluorescence ratio is 0.98 ± 0.029.

Question: With ATTTGGGGAA as the sequence, how does the switch fluorescence ratio read?
Answer: Its switch fluorescence ratio is 0.976 ± 0.021.

Question: How did the switch fluorescence ratio turn out when ATTTGGGGTA was run?
Answer: Its switch fluorescence ratio is 1.01 ± 0.024.

Question: For ATTTGGGGTG, which switch fluorescence ratio is on record?
Answer: The switch fluorescence ratio was 1.016 ± 0.0069.

Question: Which switch fluorescence ratio does the source give for ATTTGGGT here?
Answer: Its switch fluorescence ratio is 0.999 ± 0.021.

Question: With ATTTGGTACC as the sequence, how does the switch fluorescence ratio read?
Answer: Its switch fluorescence ratio is 0.977 ± 0.043.

Question: With ATTTGGTATT as the sequence, how does the switch fluorescence ratio read?
Answer: Its switch fluorescence ratio is 0.992 ± 0.041.

Question: How did the switch fluorescence ratio turn out when ATTTGGTTGT was run?
Answer: The switch fluorescence ratio was 0.958 ± 0.021.

Question: Which switch fluorescence ratio does the source give for ATTTGTCCGG here?
Answer: Its switch fluorescence ratio is 1.007 ± 0.0081.

Question: For ATTTGTTGGA, which switch fluorescence ratio is on record?
Answer: Its switch fluorescence ratio is 0.989 ± 0.04.

Question: With ATTTTAAAAT as the sequence, how does the switch fluorescence ratio read?
Answer: The switch fluorescence ratio was 0.977 ± 0.013.

Question: ATTTTAAACG was tested. Which switch fluorescence ratio did it give?
Answer: Its switch fluorescence ratio is 0.979 ± 0.021.

Question: With ATTTTAAATT as the sequence, how does the switch fluorescence ratio read?
Answer: The switch fluorescence ratio was 1 ± 0.019.

Question: How did the switch fluorescence ratio turn out when ATTTTAAGAG was run?
Answer: The switch fluorescence ratio was 1.01 ± 0.02.

Question: With ATTTTAATTT as the sequence, how does the switch fluorescence ratio read?
Answer: The switch fluorescence ratio was 1.01 ± 0.015.

Question: ATTTTAGGTC was tested. Which switch fluorescence ratio did it give?
Answer: Its switch fluorescence ratio is 0.989 ± 0.025.

Question: ATTTTAGT was tested. Which switch fluorescence ratio did it give?
Answer: Its switch fluorescence ratio is 1.01 ± 0.038.

Question: Which switch fluorescence ratio does the source give for ATTTTATGCG here?
Answer: Its switch fluorescence ratio is 0.985 ± 0.023.

Question: How did the switch fluorescence ratio turn out when ATTTTCAATG was run?
Answer: The switch fluorescence ratio was 1 ± 0.018.

Question: How did the switch fluorescence ratio turn out when ATTTTCGACA was run?
Answer: The switch fluorescence ratio was 1.022 ± 0.0028.

Question: How did the switch fluorescence ratio turn out when ATTTTCGGGT was run?
Answer: The switch fluorescence ratio was 0.9766 ± 0.0023.

Question: Which switch fluorescence ratio does the source give for ATTTTCTGTA here?
Answer: Its switch fluorescence ratio is 1.0017 ± 0.00088.

Question: ATTTTGAATG was tested. Which switch fluorescence ratio did it give?
Answer: Its switch fluorescence ratio is 0.979 ± 0.05.

Question: For ATTTTGCAGG, which switch fluorescence ratio is on record?
Answer: Its switch fluorescence ratio is 0.997 ± 0.046.

Question: With ATTTTGCCTT as the sequence, how does the switch fluorescence ratio read?
Answer: The switch fluorescence ratio was 1 ± 0.015.

Question: Which switch fluorescence ratio does the source give for ATTTTGGATG here?
Answer: The switch fluorescence ratio was 0.996 ± 0.025.

Question: ATTTTGGGGG was tested. Which switch fluorescence ratio did it give?
Answer: Its switch fluorescence ratio is 0.988 ± 0.021.

Question: With ATTTTGGTCG as the sequence, how does the switch fluorescence ratio read?
Answer: The switch fluorescence ratio was 0.982 ± 0.082.

Question: How did the switch fluorescence ratio turn out when ATTTTGTATT was run?
Answer: Its switch fluorescence ratio is 0.99 ± 0.034.

Question: Which switch fluorescence ratio does the source give for ATTTTGTGGT here?
Answer: Its switch fluorescence ratio is 1.01 ± 0.011.

Question: ATTTTTAGAG was tested. Which switch fluorescence ratio did it give?
Answer: The switch fluorescence ratio was 1.01 ± 0.023.

Question: How did the switch fluorescence ratio turn out when ATTTTTATAA was run?
Answer: Its switch fluorescence ratio is 0.987 ± 0.025.

Question: How did the switch fluorescence ratio turn out when ATTTTTCTCA was run?
Answer: Its switch fluorescence ratio is 1.04 ± 0.062.

Question: With ATTTTTGAAG as the sequence, how does the switch fluorescence ratio read?
Answer: The switch fluorescence ratio was 1.02 ± 0.044.

Question: How did the switch fluorescence ratio turn out when ATTTTTGAAT was run?
Answer: Its switch fluorescence ratio is 1.01 ± 0.029.

Question: For ATTTTTGGC, which switch fluorescence ratio is on record?
Answer: Its switch fluorescence ratio is 1.03 ± 0.06.

Question: Which switch fluorescence ratio does the source give for ATTTTTGGGG here?
Answer: Its switch fluorescence ratio is 1.006 ± 0.0088.

Question: For ATTTTTGTTG, which switch fluorescence ratio is on record?
Answer: The switch fluorescence ratio was 0.9883 ± 0.008.

Question: With ATTTTTTAGA as the sequence, how does the switch fluorescence ratio read?
Answer: The switch fluorescence ratio was 0.989 ± 0.021.

Question: How did the switch fluorescence ratio turn out when ATTTTTTATT was run?
Answer: Its switch fluorescence ratio is 0.9923 ± 0.0097.

Question: With ATTTTTTTTA as the sequence, how does the switch fluorescence ratio read?
Answer: Its switch fluorescence ratio is 0.974 ± 0.024.

Question: CAAAAACGTT was tested. Which switch fluorescence ratio did it give?
Answer: The switch fluorescence ratio was 1.02 ± 0.024.

Question: For CAAAAAGGAG, which switch fluorescence ratio is on record?
Answer: The switch fluorescence ratio was 0.994 ± 0.019.

Question: For CAAAACGGGG, which switch fluorescence ratio is on record?
Answer: The switch fluorescence ratio was 1.15 ± 0.18.

Question: CAAAAGATGT was tested. Which switch fluorescence ratio did it give?
Answer: Its switch fluorescence ratio is 1.01 ± 0.05.

Question: For CAAAAGCGAG, which switch fluorescence ratio is on record?
Answer: The switch fluorescence ratio was 1.014 ± 0.0055.

Question: Which switch fluorescence ratio does the source give for CAAAAGGAGT here?
Answer: Its switch fluorescence ratio is 0.992 ± 0.034.

Question: Which switch fluorescence ratio does the source give for CAAAAGGGGG here?
Answer: Its switch fluorescence ratio is 0.9818 ± 0.005.

Question: CAAAAGTGGG was tested. Which switch fluorescence ratio did it give?
Answer: Its switch fluorescence ratio is 0.9928 ± 0.0018.

Question: For CAAAATTGCC, which switch fluorescence ratio is on record?
Answer: Its switch fluorescence ratio is 0.954 ± 0.11.

Question: Which switch fluorescence ratio does the source give for CAAAGAAAGA here?
Answer: Its switch fluorescence ratio is 0.991 ± 0.032.

Question: CAAAGAAAGG was tested. Which switch fluorescence ratio did it give?
Answer: The switch fluorescence ratio was 0.95 ± 0.021.

Question: For CAAAGAGGAT, which switch fluorescence ratio is on record?
Answer: Its switch fluorescence ratio is 0.991 ± 0.022.

Question: Which switch fluorescence ratio does the source give for CAAAGCGCGG here?
Answer: The switch fluorescence ratio was 0.997 ± 0.055.

Question: For CAAAGGAGGT, which switch fluorescence ratio is on record?
Answer: Its switch fluorescence ratio is 1.03 ± 0.096.

Question: Which switch fluorescence ratio does the source give for CAAAGGATGA here?
Answer: Its switch fluorescence ratio is 0.988 ± 0.002.

Question: How did the switch fluorescence ratio turn out when CAAATAAGTG was run?
Answer: The switch fluorescence ratio was 0.9842 ± 0.0088.

Question: How did the switch fluorescence ratio turn out when CAAATAAGTT was run?
Answer: Its switch fluorescence ratio is 1.02 ± 0.029.

Question: For CAAATAATGA, which switch fluorescence ratio is on record?
Answer: The switch fluorescence ratio was 0.9642 ± 0.0036.

Question: For CAAATAGCTA, which switch fluorescence ratio is on record?
Answer: The switch fluorescence ratio was 1.0363 ± 0.00014.

Question: With CAAATCGTTT as the sequence, how does the switch fluorescence ratio read?
Answer: Its switch fluorescence ratio is 0.985 ± 0.038.

Question: Which switch fluorescence ratio does the source give for CAAATGAAGT here?
Answer: The switch fluorescence ratio was 1.02 ± 0.018.

Question: For CAAATGGTTT, which switch fluorescence ratio is on record?
Answer: Its switch fluorescence ratio is 1.05 ± 0.08.

Question: For CAAATGTAGC, which switch fluorescence ratio is on record?
Answer: The switch fluorescence ratio was 1.017 ± 0.0081.
